Experiments:
[1] = system: CCCC(=O)Oc1ccc([N+](=O)[O-])cc1; test: purified protein, by the assay type; parameters: p-nitrophenyl ester hydrolysis, absorbance at 412 nm, Michaelis-Menten fit
From the text: (A) Classic p-nitrophenyl ester substrates were used as conformation for fluorogenic substrate measurements (Figure 1). (B) Catalytic efficiency comparison of MmLipN against p-nitrophenyl substrates. Catalytic efficiency values (kcat/Km) are given ± SD. (C, D) Kinetic activity of MmLipN against (C) short alkyl ester substrates: p-nitrophenyl acetate (C2) and p-nitrophenyl butyrate (C4) and (D) longer alkyl ester substrates: p-nitrophenyl valerate ([…]), p-nitrophenyl octonoate (C8), and p-nitrophenyl myristate (C14). Data points were fitted to the Michaelis–Menten equation and are shown ± SD.

[2] = system: CC(=O)OCOc1ccc2c(c1)Oc1cc(OCOC(C)=O)ccc1C21OC(=O)c2ccccc21; test: purified protein, by the assay type; parameters: fluorogenic ester hydrolysis, fluorescein release, Michaelis-Menten fit of initial rates
Method: (§1) The enzyme kinetic activity of LipN was assayed via the hydrolysis of the fluorogenic substrates (Figure 1) in accordance with past kinetic analysis of mycobacterial serine hydrolases.[37],[38],[40],[66],[67] Kinetic assays were run in triplicate on black 96-well plates in a Synergy H1 Hybrid Reader (BioTek). Fluorogenic ester substrates (10 mM in DMSO) were diluted to a starting concentration of 100 μM in PBS containing acetylated BSA (Sigma; 0.1 mg/mL). Eight serial dilutions (1:1; 120 μL into 240 μL total volume) of each substrate were made using PBS–BSA. Fluorogenic substrate dilutions (95 μL) were then transferred to opaque 96-well microplate (Corning, Lowell, MA). Reactions were initiated by quickly adding enzyme (5 μL, 3.0 nM final concentration) to each assay well, mixed, and the fluorescence counts measured every 26–30 s for 4.5 min with a BioTek H1 Synergy multimode plate reader (Biotek Instruments; Winooski, VT) at ambient temperature. The instrument measured relative fluorescence through excitation at λ = 485 nm and emission at λ = 520 nm. The fluorescence change was converted to molar concentrations using a fluorescein standard curve (300–2.3 nM), whose fluorescence was measured simultaneously. The initial rates of the enzyme-catalyzed reactions were measured in triplicate and plotted versus fluorogenic substrate concentration. […] (A) Activation of fluorogenic ester substrates by MmLipN. Each of the substrates is composed of diacyloxymethyl ether fluorescein with varying R-groups. The differing R-groups have been organized into classes and colored based on chemical functionality. All of the substrates were synthesized as described previously.[38],[43] Substrates 6, 10–11, 14–15, 20, 23–30, and 33 were newly synthesized for this characterization of MmLipN. Detailed synthetic characterization is provided in the Supporting Information. (B) Global comparison of the catalytic specificity (kcat/KM) of MmLipN against each of the 33 substrates with ester classes labeled. Catalytic efficiency values (kcat/Km) are given ± SD based on at least three independent kinetic replicates. (C, D) Kinetic activity of MmLipN against high-activity ester substrates 1 (black circles), 7 (blue squares), and 20 (red diamonds) and low-activity ester substrates 12 (green circles), 16 (red squares), 27 (purple diamonds), and 31 (orange squares). Low- and high-activity substrates display classic Michaelis–Menten kinetics with MmLipN and activity above background hydrolysis rates. Traces colored based on ester classification from (A, B). All measurements were completed in at least triplicate and shown ± SD.

[3] = system: O=C1OC2(c3ccc(OCOC(=O)C4(C(F)(F)F)CC4)cc3Oc3cc(OCOC(=O)C4(C(F)(F)F)CC4)ccc32)c2ccccc21; test: purified protein, by the assay type; parameters: fluorogenic ester hydrolysis, fluorescein release, Michaelis-Menten fit of initial rates
Method: as §1

[4] = system: CS(=O)(=O)C1(C(=O)OCOc2ccc3c(c2)Oc2cc(OCOC(=O)C4(S(C)(=O)=O)CC4)ccc2C32OC(=O)c3ccccc32)CC1; test: purified protein, by the assay type; parameters: fluorogenic ester hydrolysis, fluorescein release, Michaelis-Menten fit of initial rates
Method: as §1

[5] = system: O=C1OC2(c3ccc(OCOC(=O)C4(O)CC4)cc3Oc3cc(OCOC(=O)C4(O)CC4)ccc32)c2ccccc21; test: purified protein, by the assay type; parameters: fluorogenic ester hydrolysis, fluorescein release, Michaelis-Menten fit of initial rates
Method: as §1

[6] = system: O=C(OCOc1ccc2c(c1)Oc1cc(OCOC(=O)c3ccco3)ccc1C21OC(=O)c2ccccc21)c1ccco1; test: purified protein, by the assay type; parameters: fluorogenic ester hydrolysis, fluorescein release, Michaelis-Menten fit of initial rates
Method: as §1

[7] = system: O=C1OC2(c3ccc(OCOC(=O)C4CCCC4)cc3Oc3cc(OCOC(=O)C4CCCC4)ccc32)c2ccccc21; test: purified protein, by the assay type; parameters: fluorogenic ester hydrolysis, fluorescein release, Michaelis-Menten fit of initial rates
Method: as §1

[8] = biological target: T1, MmLipN (LipN from M. marinum) (Mycobacterium marinum, UniProt B2HIK1); test: p-nitrophenol release at […] nm, Michaelis-Menten fit; format: biochemical; settings: PBS, acetylated BSA 0.1 mg/mL, acetonitrile, 36 nM enzyme, 25 °C
T1 construct: E. coli LOBSTR (DE3); Ni-NTA
T1 sequence (B2HIK1 1-372): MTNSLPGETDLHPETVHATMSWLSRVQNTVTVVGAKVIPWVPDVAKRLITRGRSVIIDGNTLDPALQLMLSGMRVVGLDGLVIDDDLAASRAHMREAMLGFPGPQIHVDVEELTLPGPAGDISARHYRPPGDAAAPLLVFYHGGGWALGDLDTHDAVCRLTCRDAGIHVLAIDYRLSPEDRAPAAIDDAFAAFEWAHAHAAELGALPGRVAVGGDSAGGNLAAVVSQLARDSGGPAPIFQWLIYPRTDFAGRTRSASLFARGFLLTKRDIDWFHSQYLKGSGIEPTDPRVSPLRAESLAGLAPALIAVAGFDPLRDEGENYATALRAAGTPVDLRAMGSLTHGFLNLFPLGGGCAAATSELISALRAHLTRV

**Q.** What does the source list for “MmLipN (LipN from M. marinum) (Mycobacterium marinum M)”?
**A.** Km [1]: 20 ± 9 µM; kcat [1]: 190 ± 10 s⁻¹; kcat/Km [1]: 9.3e+06 ± 2.1e+06 M⁻¹ s⁻¹; Km [2]: 0.22 ± 0.12 µM; kcat [2]: 0.1 ± 0.038 s⁻¹; kcat/Km [2]: 460000 ± 150000 M⁻¹ s⁻¹; Km [3]: 0.37 ± 0.13 µM; kcat [3]: 3.7e-05 ± 3e-05 s⁻¹; kcat/Km [3]: 98 ± 43 M⁻¹ s⁻¹; Km [4]: 0.084 ± 0.15 µM; kcat [4]: 1.4e-05 ± 5e-05 s⁻¹; kcat/Km [4]: 170 ± 330 M⁻¹ s⁻¹; Km [5]: 0.40 ± 0.10 µM; kcat [5]: 0.0029 ± 0.0016 s⁻¹; kcat/Km [5]: 7400 ± 2200 M⁻¹ s⁻¹; Km [6]: 0.84 ± 0.60 µM; kcat [6]: 0.003 ± 0.0048 s⁻¹; kcat/Km [6]: 3500 ± 3100 M⁻¹ s⁻¹; Km [7]: 33.9 ± 7.71 µM; kcat [7]: 0.0012 ± 0.0001 s⁻¹; kcat/Km [7]: 29 ± 4 M⁻¹ s⁻¹

**Q.** How did the KM [8] turn out when CC(=O)Oc1ccc([N+](=O)[O-])cc1 [p-nitrophenyl acetate] was run?
**A.** The enzymatic activity of MmLipN was measured against p-nitrophenyl acetate

**Q.** Which KM [8] does the source give for CCCCC(=O)Oc1ccc([N+](=O)[O-])cc1 [p-nitrophenyl valerate] here?
**A.** MmLipN was measured against p-nitrophenyl acetate, p-nitrophenyl butyrate, p-nitrophenyl valerate

**Q.** With CCCC(=O)Oc1ccc([N+](=O)[O-])cc1 [p-nitrophenyl butyrate] as the compound, how does the KM [8] read?
**A.** LipN showed highest activity against p-nitrophenyl butyrate

— paper PMC10099132, “Sequence and Structural Motifs Controlling the Broad Substrate Specificity of the Mycobacterial Hormone-Sensitive Lipase LipN” (ACS Omega, 2023)
